Source: publication PMC5637921, “An engineered photoswitchable mammalian pyruvate kinase” (The Febs Journal, 2017)

Molecular target: the molecule itself
Test: SEC; preparative SEC after Ni affinity; HiLoad 16/600 Superdex 200 pg, 0.5 mL/min, 50 mM Tris/HCl pH 7.5, 10 mM MgCl2, 200 mM NaCl, 150 mM KCl, 5% glycerol, 0.5 mM TCEP

B1: mPKM2 internal LOV2 fusion at position D24 (PiL[D24]) (enzyme)
chain: not shown
notes: mouse pyruvate kinase M2 isoform (mPKM2), residues 1-24, amplified from pLHCX-flag-mPKM2; N-terminal part up to Asp24; Avena sativa phototropin 1 (NPH1-1) LOV2 domain, residues 404-540, amplified from plasmid pDS257 (Mid2(SS/TM)-GFP-LOVpep); G528A and N538E of the template were backmutated to wild-type LOV2; numbers count on phototropin 1 (NPH1-1, GenBank AAC05083.1); mouse pyruvate kinase M2 …
- stoichiometry N: 4
